Experimental data published in article PMC11804915, “Single-stranded DNA binding to the transcription factor PafBC triggers the mycobacterial DNA damage response”.

Columns and labels:
Conditions in all cases: protein: recombinant; tags: C-terminal Strep on PafC; copies: 1;1; label: FAM; single strand
PafBC, PafB Y196A = target: T1, PafBC, PafB Y196A (Mycobacterium smegmatis, UniProt A4ZHT0;A0QZ41 1-331;1-318, Y196A); assay: EMSA; up to 16 uM; ssDNA EMSA: 22.5 mM Hepes-KOH pH 7.8, 135 mM NaCl, 20 mM KCl, 5 mM MgCl2, 1 mM DTT, 37 C 15 min, 10 nM DNA, 0-16 uM PafBC; RNAP EMSA: 20 mM Hepes-NaOH pH 8, 100 mM K-acetate, 36 mM NaCl, 10 mM MgCl2, 2 mM DTT, 37 C 30 min
T1 sequence 1: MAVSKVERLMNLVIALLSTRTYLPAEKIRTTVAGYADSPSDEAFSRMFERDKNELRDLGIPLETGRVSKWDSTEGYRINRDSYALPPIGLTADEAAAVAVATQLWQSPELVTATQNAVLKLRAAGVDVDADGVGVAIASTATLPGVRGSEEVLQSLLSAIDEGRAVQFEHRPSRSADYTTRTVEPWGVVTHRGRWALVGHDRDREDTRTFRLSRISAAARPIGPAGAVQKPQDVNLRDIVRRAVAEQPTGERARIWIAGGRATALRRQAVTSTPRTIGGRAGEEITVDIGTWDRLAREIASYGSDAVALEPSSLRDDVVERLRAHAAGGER
T1 sequence 2: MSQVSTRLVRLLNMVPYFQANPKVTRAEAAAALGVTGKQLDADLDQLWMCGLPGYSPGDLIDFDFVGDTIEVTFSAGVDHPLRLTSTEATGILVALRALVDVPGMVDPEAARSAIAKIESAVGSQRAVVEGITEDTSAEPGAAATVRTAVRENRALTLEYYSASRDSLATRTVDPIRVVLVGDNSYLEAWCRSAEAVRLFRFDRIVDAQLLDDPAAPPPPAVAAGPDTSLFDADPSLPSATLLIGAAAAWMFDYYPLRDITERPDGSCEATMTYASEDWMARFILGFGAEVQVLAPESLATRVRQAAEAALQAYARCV

PafBC, PafB WYL variant = target: T2, PafBC, PafB WYL variant (Mycobacterium smegmatis, UniProt A4ZHT0;A0QZ41 1-331;1-318, R214A;PafB:R211A); assay: as above
T2 sequence 1: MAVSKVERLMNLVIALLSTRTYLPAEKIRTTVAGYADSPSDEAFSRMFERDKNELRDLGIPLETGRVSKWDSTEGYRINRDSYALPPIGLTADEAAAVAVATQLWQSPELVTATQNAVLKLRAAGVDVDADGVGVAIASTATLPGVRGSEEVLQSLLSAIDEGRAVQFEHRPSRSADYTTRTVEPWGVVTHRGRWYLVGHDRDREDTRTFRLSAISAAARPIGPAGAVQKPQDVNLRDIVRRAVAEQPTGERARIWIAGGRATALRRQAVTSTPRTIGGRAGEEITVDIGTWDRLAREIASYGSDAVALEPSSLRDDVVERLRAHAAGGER
T2 sequence 2: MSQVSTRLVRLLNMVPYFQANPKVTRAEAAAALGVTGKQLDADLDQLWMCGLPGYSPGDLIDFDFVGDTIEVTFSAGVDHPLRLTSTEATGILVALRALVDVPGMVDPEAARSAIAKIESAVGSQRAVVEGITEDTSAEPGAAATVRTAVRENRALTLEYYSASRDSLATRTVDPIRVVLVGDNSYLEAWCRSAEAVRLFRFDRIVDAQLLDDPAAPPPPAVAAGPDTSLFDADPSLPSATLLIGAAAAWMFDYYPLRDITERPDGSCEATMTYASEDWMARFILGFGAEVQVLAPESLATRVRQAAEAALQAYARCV

PafBC WT = target: T3, PafBC WT (Mycobacterium smegmatis, UniProt A4ZHT0;A0QZ41 1-331;1-318); assay: EMSA; low micromolar affinity; ssDNA EMSA: 22.5 mM Hepes-KOH pH 7.8, 135 mM NaCl, 20 mM KCl, 5 mM MgCl2, 1 mM DTT, 37 C 15 min, 10 nM DNA, 0-16 uM PafBC; RNAP EMSA: 20 mM Hepes-NaOH pH 8, 100 mM K-acetate, 36 mM NaCl, 10 mM MgCl2, 2 mM DTT, 37 C 30 min
T3 sequence 1: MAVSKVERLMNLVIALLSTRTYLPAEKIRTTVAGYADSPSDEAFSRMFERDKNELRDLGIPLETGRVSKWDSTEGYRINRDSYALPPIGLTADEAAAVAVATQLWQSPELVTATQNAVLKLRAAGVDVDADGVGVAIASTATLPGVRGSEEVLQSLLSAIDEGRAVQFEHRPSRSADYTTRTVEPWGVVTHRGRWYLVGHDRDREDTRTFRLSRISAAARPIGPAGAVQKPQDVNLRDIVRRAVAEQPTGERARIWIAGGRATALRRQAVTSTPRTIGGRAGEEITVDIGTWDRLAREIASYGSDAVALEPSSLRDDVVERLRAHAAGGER
T3 sequence 2: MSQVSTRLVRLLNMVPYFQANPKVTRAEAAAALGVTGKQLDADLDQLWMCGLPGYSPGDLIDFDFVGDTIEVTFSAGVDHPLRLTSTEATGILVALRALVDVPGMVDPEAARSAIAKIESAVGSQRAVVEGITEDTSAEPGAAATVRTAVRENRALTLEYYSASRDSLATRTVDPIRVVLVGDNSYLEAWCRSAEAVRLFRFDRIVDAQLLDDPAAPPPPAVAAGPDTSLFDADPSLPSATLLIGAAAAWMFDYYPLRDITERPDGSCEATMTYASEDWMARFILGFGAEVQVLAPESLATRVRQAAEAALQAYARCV

**Q.** Does TTTTTTTTTTTTTTTTTTTT (ssDNA) [dT20 ssDNA] bind (PafBC, PafB Y196A)?
**A.** no binding

**Q.** Does TTTTTTTTTTTTTTTTTTTT (ssDNA) [dT20 ssDNA] bind (PafBC, PafB WYL variant)?
**A.** no binding

**Q.** Does TTTTTTTTTTTTTTTTTTTT (ssDNA) [dT20 ssDNA] bind (PafBC WT)?
**A.** binds
